Here are results for 15 molecules from patent US20120034160A1 (AbbVie / Abbott, published 2012).

In assay [1] the target is T1, Recombinant Human IL-1β (human, UniProt P01584 117-269).
T1 construct: bought reagent; also called IL-1B
The assay is described as follows: Biacore SPR; N-terminal VD. An outline of the steps: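 First, goat anti-mouse IgG was immobilized on a CM5 chip by amine coupling. Next, test antibody or DVD-Ig (25 μg/ml) was captured. Then antigen at 10−200 nM flowed over at 25 μl/min, 25° C. Finally, association and dissociation phases were globally fitted to a 1:1 model.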
(SPR reads the build-up and loss of mass on a sensor chip optically.)

For another assay, the target named is T2, Recombinant Human IL-17 (human, UniProt Q16552 20-155, limits assumed).
T2 sequence (looked up): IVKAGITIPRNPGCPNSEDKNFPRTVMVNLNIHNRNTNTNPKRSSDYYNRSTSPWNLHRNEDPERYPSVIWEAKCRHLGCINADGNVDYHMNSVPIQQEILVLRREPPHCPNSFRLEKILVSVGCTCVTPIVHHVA
The assay is described as follows: cell-based or functional assay.

Assay [2] has as its target Recombinant Human IL-1β (human, UniProt P01584 117-269). Put plainly: cell-based or functional assay.

Changes are numbered by the printed parent chain.

B1: DVD1282 (bispecific antibody, human IgG1, kappa)
heavy: not shown
light: DIQMTQSPSSLSASVGDRVTITCRASGNIHNYLTWYQQTPGKAPKLLIYNAKTLADGVPSRFSGSGSGTDYTFTISSLQPEDIATYYCQHFWSIPYTFGQGTKLQITRTVAAPEIVLTQSPDFQSVTPKEKVTITCRASQNIGSELHWYQQKPDQSPKLLIKYASHSISGVPSRFSGSGSGTDFTLTINGLEAEDAATYYCHQSDTLPHTFGQGTKVDIKRTVAAPSVFIFPPSDEQLKSGTASVVCLLNNFYPREAKVQWKVDNALQSGNSQESVTEQDSKDSTYSLSSTLTLSKADYEKHKVYACEVTHQGLSSPVTKSFNRGEC
notes: V1 wt hIgG1, V2 kappa; also called DVD1282H; DVD1282L
Consider B1, for which, in the assay with Recombinant Human IL-1β [1], the Kd came out at 0.043 nM, the koff stood at 7.2e-05 s⁻¹ and the on-rate constant (kon) is 1.7e+06 M⁻¹ s⁻¹.

B2: DVD1284 (bispecific antibody, human IgG1, kappa)
heavy: not shown
light: B1 light
notes: V1 wt hIgG1, V2 kappa; also called DVD1284H; DVD1284L
For the molecule B2, in the assay with Recombinant Human IL-1β [1], the dissociation constant (Kd) worked out at 0.017 nM, the koff came out at 1.9e-05 s⁻¹ and the kon came out at 1.1e+06 M⁻¹ s⁻¹.

B3: AB273 (antibody, human IgG1, kappa, V domains shown)
VH: EVQLVQSGAEVKKPGSSVKVSCKASGYTFTDYEIHWVRQAPGQGLEWMGVNDPESGGTFYNQKFDGRVTLTADESTSTAYMELSSLRSEDTAVYYCTRYSKWDSFDGMDYWGQGTTVTVSS
VL: DIQMTQSPSSLSASVGDRVTITCRASSGIISYIDWFQQKPGKAPKRLIYATFDLASGVPSRFSGSGSGTDYTLTISSLQPEDFATYYCRQVGSYPETFGQGTKLEIKR
B3: the “IL-17 Neutralization Assay EC50” value with Recombinant Human IL-17 amounted to 0.0161 nM.

B4: DVD1262 (bispecific antibody, human IgG1, kappa)
heavy: not shown
light: DIQMTQSPSSLSASVGDRVTITCRASGNIHNYLTWYQQTPGKAPKLLIYNAKTLADGVPSRFSGSGSGTDYTFTISSLQPEDIATYYCQHFWSIPYTFGQGTKLQITRTVAAPDIQMTQSPSSLSASVGDRVTITCRASSGIISYIDWFQQKPGKAPKRLIYATFDLASGVPSRFSGSGSGTDYTLTISSLQPEDFATYYCRQVGSYPETFGQGTKLEIKRTVAAPSVFIFPPSDEQLKSGTASVVCLLNNFYPREAKVQWKVDNALQSGNSQESVTEQDSKDSTYSLSSTLTLSKADYEKHKVYACEVTHQGLSSPVTKSFNRGEC
Take B4: in the assay with Recombinant Human IL-17, the “C-terminal VD IL-17 Neutralization Assay EC50” value was determined as 0.0162 nM. Moreover, in the assay with Recombinant Human IL-1β [2], the “N-Terminal VD IL-1β Neutralization Assay EC50” value came out at 0.0164 nM.

B5: DVD1264 (bispecific antibody, human IgG1, kappa)
heavy: not shown
light: B4 light
Regarding B5, in the assay with Recombinant Human IL-17, the “C-terminal VD IL-17 Neutralization Assay EC50” value worked out at 0.0084 nM. Also, in the assay with Recombinant Human IL-1β [2], the “N-Terminal VD IL-1β Neutralization Assay EC50” value is 0.12 nM.

B6: DVD1280 (bispecific antibody, human IgG1, kappa)
heavy: not shown
light: ETTVTQSPSSLSASVGDRVTITCITSTDIDVDMNWYQQKPGKPPKLLISQGNTLRPGVPSRFSSSGSGTDFTFTISSLQPEDFATYYCLQSDNLPLTFGQGTKLEIKRTVAAPEIVLTQSPDFQSVTPKEKVTITCRASQDIGSELHWYQQKPDQPPKLLIKYASHSTSGVPSRFSGSGSGTDFTLTINGLEAEDAGTYYCHQTDSLPYTFGPGTKVDIKRTVAAPSVFIFPPSDEQLKSGTASVVCLLNNFYPREAKVQWKVDNALQSGNSQESVTEQDSKDSTYSLSSTLTLSKADYEKHKVYACEVTHQGLSSPVTKSFNRGEC
notes: DVD-Ig, outer AB272, inner AB274, linker set 1; V1 wt hIgG1, V2 kappa; also called DVD1280H; DVD1280L
Turning to B6, in the assay with Recombinant Human IL-1β [1], the dissociation constant Kd is 0.08 nM, the koff worked out at 0.00063 s⁻¹ and the kon was 7.9e+06 M⁻¹ s⁻¹.

B7: DVD1290 (bispecific antibody, human IgG1, kappa)
heavy: not shown
light: B6 light with D141N, P156S, T168I, G197A, T204S, S206T, Y209H, P213Q
notes: DVD-Ig, outer AB272, inner AB275, linker set 1; V1 wt hIgG1, V2 kappa; also called DVD1290H; DVD1290L
As for B7, in the assay with Recombinant Human IL-1β [1], the Kd was determined as 0.086 nM, the koff came to 0.00065 s⁻¹ and the kon is 7.5e+06 M⁻¹ s⁻¹.

B8: DVD1286 (bispecific antibody, human IgG1, kappa)
heavy: not shown
light: B6 light with E1D, T3Q, D141N, P156S, T168I, G197A, T204S, S206T, Y209H, P213Q
notes: DVD-Ig, outer AB270, inner AB275, linker set 1; V1 wt hIgG1, V2 kappa; also called DVD1286H; DVD1286L
Turning to B8, in the assay with Recombinant Human IL-1β [1], the Kd is 0.07 nM, the koff amounted to 0.0005 s⁻¹ and the on-rate constant (kon) was found to be 7.2e+06 M⁻¹ s⁻¹.

B9: DVD1268 (bispecific antibody, human IgG1, kappa)
heavy: not shown
light: DTVVTQSPAFLSVTPGEKVTITCITSTDIDVDMNWYQQKPDQPPKLLISQGNTLRPGVPSRFSSSGSGTDFTFTISSLEAEDAATYYCLQSDNLPLTFGQGTKLEIKRTVAAPDIQMTQSPSSLSASVGDRVTITCRASSGIISYIDWFQQKPGKAPKRLIYATFDLASGVPSRFSGSGSGTDYTLTISSLQPEDFATYYCRQVGSYPETFGQGTKLEIKRTVAAPSVFIFPPSDEQLKSGTASVVCLLNNFYPREAKVQWKVDNALQSGNSQESVTEQDSKDSTYSLSSTLTLSKADYEKHKVYACEVTHQGLSSPVTKSFNRGEC
In the case of B9, in the assay with Recombinant Human IL-17, the “C-terminal VD IL-17 Neutralization Assay EC50” value turned out to be 0.0034 nM. Besides, the “N-Terminal VD IL-1β Neutralization Assay EC50” value with Recombinant Human IL-1β [2] turned out to be 0.146 nM.

B10: DVD1266 (bispecific antibody, human IgG1, kappa)
heavy: not shown
light: DTQVTQSPSSLSASVGDRVTITCITSTDIDVDMNWYQQKPGKPPKLLISQGNTLRPGVPSRFSSSGSGTDFTFTISSLQPEDFATYYCLQSDNLPLTFGQGTKLEIKRTVAAPDIQMTQSPSSLSASVGDRVTITCRASSGIISYIDWFQQKPGKAPKRLIYATFDLASGVPSRFSGSGSGTDYTLTISSLQPEDFATYYCRQVGSYPETFGQGTKLEIKRTVAAPSVFIFPPSDEQLKSGTASVVCLLNNFYPREAKVQWKVDNALQSGNSQESVTEQDSKDSTYSLSSTLTLSKADYEKHKVYACEVTHQGLSSPVTKSFNRGEC
On to B10, for which the “C-terminal VD IL-17 Neutralization Assay EC50” value with Recombinant Human IL-17 was found to be 0.015 nM. Besides, the “N-Terminal VD IL-1β Neutralization Assay EC50” value with Recombinant Human IL-1β [2] stood at 0.327 nM.

B11: DVD1288 (bispecific antibody, human IgG1, kappa)
heavy: not shown
light: DTVVTQSPAFLSVTPGEKVTITCITSTDIDVDMNWYQQKPDQPPKLLISQGNTLRPGVPSRFSSSGSGTDFTFTISSLEAEDAATYYCLQSDNLPLTFGQGTKLEIKRTVAAPEIVLTQSPDFQSVTPKEKVTITCRASQNIGSELHWYQQKPDQSPKLLIKYASHSISGVPSRFSGSGSGTDFTLTINGLEAEDAATYYCHQSDTLPHTFGQGTKVDIKRTVAAPSVFIFPPSDEQLKSGTASVVCLLNNFYPREAKVQWKVDNALQSGNSQESVTEQDSKDSTYSLSSTLTLSKADYEKHKVYACEVTHQGLSSPVTKSFNRGEC
notes: DVD-Ig, outer AB271, inner AB275, linker set 1; V1 wt hIgG1, V2 kappa; also called DVD1288H; DVD1288L
Regarding B11, in the assay with Recombinant Human IL-1β [1], the Kd worked out at 0.076 nM, the koff was found to be 0.00046 s⁻¹ and the kon was 6.1e+06 M⁻¹ s⁻¹.

B12: DVD1269 (bispecific antibody, human IgG1, kappa)
heavy: not shown
light: DIQMTQSPSSLSASVGDRVTITCRASSGIISYIDWFQQKPGKAPKRLIYATFDLASGVPSRFSGSGSGTDYTLTISSLQPEDFATYYCRQVGSYPETFGQGTKLEIKRTVAAPDTVVTQSPAFLSVTPGEKVTITCITSTDIDVDMNWYQQKPDQPPKLLISQGNTLRPGVPSRFSSSGSGTDFTFTISSLEAEDAATYYCLQSDNLPLTFGQGTKLEIKRTVAAPSVFIFPPSDEQLKSGTASVVCLLNNFYPREAKVQWKVDNALQSGNSQESVTEQDSKDSTYSLSSTLTLSKADYEKHKVYACEVTHQGLSSPVTKSFNRGEC
As for B12, the “N-terminal VD IL-17 Neutralization Assay EC50” value with Recombinant Human IL-17 was 0.0082 nM. Also, the “C-Terminal VD IL-1β Neutralization Assay EC50” value with Recombinant Human IL-1β [2] was above 45 nM.

B13: DVD1267 (bispecific antibody, human IgG1, kappa)
heavy: not shown
light: DIQMTQSPSSLSASVGDRVTITCRASSGIISYIDWFQQKPGKAPKRLIYATFDLASGVPSRFSGSGSGTDYTLTISSLQPEDFATYYCRQVGSYPETFGQGTKLEIKRTVAAPDTQVTQSPSSLSASVGDRVTITCITSTDIDVDMNWYQQKPGKPPKLLISQGNTLRPGVPSRFSSSGSGTDFTFTISSLQPEDFATYYCLQSDNLPLTFGQGTKLEIKRTVAAPSVFIFPPSDEQLKSGTASVVCLLNNFYPREAKVQWKVDNALQSGNSQESVTEQDSKDSTYSLSSTLTLSKADYEKHKVYACEVTHQGLSSPVTKSFNRGEC
In the case of B13, the “N-terminal VD IL-17 Neutralization Assay EC50” value with Recombinant Human IL-17 turned out to be 0.0109 nM. In the assay with Recombinant Human IL-1β [2], the “C-Terminal VD IL-1β Neutralization Assay EC50” value was above 40 nM.

B14: DVD1263 (bispecific antibody, human IgG1, kappa)
heavy: not shown
light: DIQMTQSPSSLSASVGDRVTITCRASSGIISYIDWFQQKPGKAPKRLIYATFDLASGVPSRFSGSGSGTDYTLTISSLQPEDFATYYCRQVGSYPETFGQGTKLEIKRTVAAPDIQMTQSPSSLSASVGDRVTITCRASGNIHNYLTWYQQTPGKAPKLLIYNAKTLADGVPSRFSGSGSGTDYTFTISSLQPEDIATYYCQHFWSIPYTFGQGTKLQITRTVAAPSVFIFPPSDEQLKSGTASVVCLLNNFYPREAKVQWKVDNALQSGNSQESVTEQDSKDSTYSLSSTLTLSKADYEKHKVYACEVTHQGLSSPVTKSFNRGEC
For B14, the “N-terminal VD IL-17 Neutralization Assay EC50” value with Recombinant Human IL-17 came out at 0.0052 nM. For the same molecule, the “C-Terminal VD IL-1β Neutralization Assay EC50” value in the assay with Recombinant Human IL-1β [2] came to 20 nM.

B15: DVD1265 (bispecific antibody, human IgG1, kappa)
heavy: not shown
light: B14 light
For the molecule B15, in the assay with Recombinant Human IL-17, the “N-terminal VD IL-17 Neutralization Assay EC50” value was 0.0028 nM. Further, the “C-Terminal VD IL-1β Neutralization Assay EC50” value with Recombinant Human IL-1β [2] amounted to 0.925 nM.

What is called Kd is the concentration at which binding is half-saturated. Usually koff stands for a measure of how fast the partners let go of each other. By kon is commonly meant the rate constant with which the complex forms.
